# Reference: patent US20210205409A1, “METHOD FOR THE TREATMENT OF HYPOXIC-ISCHEMIC ENCEPHALOPATHY IN NEWBORNS” (UNIVERSITEIT MAASTRICHT, priority 2018, published 2021)
# B1: Annexin A1 (protein, UniProt P04083 2-346, looked up)
# Annexin A1: AMVSEFLKQAWFIENEEQEYVQTVKSSKGGPGSAVSPYPTFNPSSDVAALHKAIMVKGVDEATIIDILTKRNNAQRQQIKAAYLQETGKPLDETLKKALTGHLEEVVLALLKTPAQFDADELRAAMKGLGTDEDTLIEILASRTNKEIRDINRVYREELKRDLAKDITSDTSGDFRNALLSLAKGDRSEDFGVNEDLADSDARALYEAGERRKGTDVNVFNTILTTRSYPQLRRVFQKYTKYSKHDMNKVLDLELKGDIEKCLTAIVKCATSKPAFFAEKLHQAMKGVGTRHKALIRIMVSRSEIDMNDIKAFYQKMYGISLCQAILDETKGDYEKILVALCGGN
# notes: recombinant Annexin A1 protein, preferably of human origin, obtained commercially
# Test system: primary fetal endothelial cells (ECs) isolated from rat brains
# Assay: Trans-endothelial electrical resistance (TEER) of endothelial cell monolayer after oxygen glucose deprivation (OGD)
# Assay type: cell-based
# Description: To assess whether the effects on the BBB integrity are mediated by Annexin A1, we used a recognized model for BBB integrity of primary fetal endothelial cells (ECs) isolated from rat brains at postnatal day 3.
# A cellular monolayer of endothelial cells (ECs) was cultured on semipermeable filter inserts (Transwell, 3460 Corning). Trans-endothelial electrical resistance (TEER) was measured as an established quantitative readout for barrier integrity as described before (Srinivasan et al., J. Lab Autom. 2015 (2) 107-126) using an Epithelial Voltohmmeter (EVOM2) with two chopstick electrodes, each containing a silver-silver chloride pellet for measuring voltage and a silver pellet for passing current. Measurements of the resistance in ohm (Ω) across the cell layer were made on the semipermeable membrane by placing one electrode in the upper compartment and the other electrode in the lower compartment. Measurements were performed in duplicate per insert and consistently conducted for several days, 30 minutes after culture media was changed and temperature was kept at 37° C. before and between all measurements. […]
# Subsequently TEER was measured in all groups at 1 hour, 3 hours, 6 hours, 12 hours and 24 after normoxia/OGD. […]
# At 0 hour, baseline TEER measurements were taken before initiation of OGD. […] TEER in ohms was measured 3 h, 6 h, 12 h and 24 h after treatment. […]
molecule,measurement,setting,value
B1,TEER plateau value,"fetal rat brain ECs on Transwell, 4 h OGD then treatment with Annexin A1 3 μM, plateau from 12 h onwards, baseline approx. 150 ohms per insert",130 ohms
same,effect on endothelial resistance / barrier integrity following OGD,"fetal rat brain ECs, 4 h OGD, Annexin A1 3 μM",restores the endothelial resistance and/or barrier integrity
